Target: basophil-bound IgE of a grass pollen allergic patient
Assay: cell-based or functional assay

reduction of histamine release compared to complete rPhl p 6: ~1000 fold
Binder: GKATTEEQKLIEDINASFRAAMATTANVPPADK [rPhl p 6 aa 1-33]
